From patent US20190177434A1
Where a chain is given by its changes, count along the chain named.

B1: IgG-Fc-11 (VHH)
VHH: QVQLQESGGGLVQAGGSLRLSCAVSGRTFSTYAMGWFRQAPGKEREFVGSANWKSGSTYLVDSVKGRFTISGDNAHDTVHLQMTSLKPEDTGVYFCVARSFGTGQWDYWGQGTQVTVSS
B2: IgG-Fc-12 (VHH)
VHH: B1 VHH with A51I, W53F, T58I, V61A, H76Q, D77N, V79A, H80Y, G92A, F95L
B3: IgG-Fc-13 (VHH)
VHH: QVQLQESGGGLVQAGGSLRLSCAASGDTFSTYAMGWFRQAPGKEREFVGRIVRGTESTYLIDSVKGRFAISRDNAQNTVYLQMTSLKPEDTAVYFCVARSFGAGQWDYWGQGTQVTVSS
B4: IgG-Fc-15 (VHH)
VHH: QVQLQESGGGLVQAGGSLRLSCAVSGRGFSTYAMGWFRQAPGKEREFVGSANWKSGSIYVADSVKGRFTISNDNAQNTVYLQMSSLKPEDTAVYYCVARSFGTGQWDYWGQGTQVTVSS
B5: IgG-Fc-14 (VHH)
VHH: QVQLQESGGGLVQTGGSLRLSCSASGGTFETYAMGWFRQAPGKEREFVGSTNWKSERTYVADSVKGRFTISRDNGQYTAYLQMTSLKPEDTAVYFCVARSFGTGQWDYWGQGTQVTVSS

Target: Human IgG, Fc fragment (human)
Assay: method not given

| Binder | Ka |
| --- | --- |
| B1 | > 4e+09 M⁻¹ |
| B2 | > 4e+09 M⁻¹ |
| B3 | > 4e+09 M⁻¹ |
| B4 | > 4e+09 M⁻¹ |
| B5 | > 4e+09 M⁻¹ |
